Laboratory results published in publication PMC9865274, “Ultrasensitive Detection of Interleukin 6 by Using Silicon Nanowire Field-Effect Transistors”.

Target: Interleukin 6 (IL-6) (Homo sapiens, UniProt P05231 30-212)
Assay: SiNW-FET (gate voltage shift); aptamer immobilized on mSAMs-GA; IL-6 in PBS pH 7.4, 30 min; valid signal from 100 fM (2.1 pg/mL), approx. linear to 10 nM; no Kd; IL-6 in PBS pH 7.4, 30 min incubation, PBS wash; readout in 10 mM bis-tris propane pH 7.4; temperature of binding not stated
Settings: protein: commercial

Interleukin 6 (IL-6), sequence (P05231 30-212): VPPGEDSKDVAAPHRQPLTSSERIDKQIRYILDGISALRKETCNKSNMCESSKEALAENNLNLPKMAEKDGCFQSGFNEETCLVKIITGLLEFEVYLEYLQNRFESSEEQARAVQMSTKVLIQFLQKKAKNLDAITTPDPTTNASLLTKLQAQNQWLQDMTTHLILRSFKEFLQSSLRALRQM

B1: anti-IL-6 aptamer (31 nt) (ssDNA)
DNA: GGTGGCAGGAGGACTATTTATTTGCTTTTCT
modifications: 5'-NH2-C6, covalently immobilized via glutaraldehyde on mixed-SAM SiNW-FET
- binding result: binds
